According to paper PMC13094992, “Genetic complementation reveals structure-function links in nodavirus RNA replication complex crowns” (PLOS Pathogens, 2026):
Substitutions are numbered along the chain they refer to. Numbers in names are those of the source.

B1: FHV protein A H93A, C-terminal alfa tag (natural protein)
chain: MTLKVILGEHQITRTELLVGIATVSGCGAVVYCISKFWGYGAIAPYPQSGGNRVTRALQRAVIDKTKTPIETRFYPLDSLRTVTPKRVADNGAAVSGAVRDAARRLIDESITAVGGSKFEVNPNPNSSTGLRNHFHFAVGDLAQDFRNDTPADDAFIVGVDVDYYVTEPDVLLEHMRPVVLHTFNPKKVSGFDADSPFTIKNNLVEYKVSGGAAWVHPVWDWCEAGEFIASRVRTSWKEWFLQLPLRMIGLEKVGYHKIHHCRPWTDCPDRALVYTIPQYVIWRFNWIDTELHVRKLKRIEYQDETKPGWNRLEYVTDKNELLVSIGREGEHAQITIEKEKLDMLSGLSATQSVNARLIGMGHKDPQYTSMIVQYYTGKKVVSPISPTVYKPTMPRVHWPVTSDADVPEVSARQYTLPIVSDCMMMPMIKRWETMSESIERRVTFVANDKKPSDRIAKIAETFVKLMNGPFKDLDPLSIEETIERLNKPSQQLQLRAVFEMIGVKPRQLIESFNKNEPGMKSSRIISGFPDILFILKVSRYTLAYSDIVLHAEHNEHWYYPGRNPTEIADGVCEFVSDCDAEVIETDFSNLDGRVSSWMQRNIAQKAMVQAFRPEYRDEIISFMDTIINCPAKAKRFGFRYEPGVGVKSGSPTTTPHNTQYNGCVEFTALTFEHPDAEPEDLFRLIGPKCGDDGLSRAIIQKSINRAAKCFGLELKVERYNPEIGLCFLSRVFVDPLATTTTIQDPLRTLRKLHLTTRDPTIPLADAACDRVEGYLCTDALTPLISDYCKMVLRLYGPTASTEQVRNQRRSRNKEKPYWLTCDGSWPQHPQDAHLMKQVLIKRTAIDEDQVDALIGRFAAMKDVWEKITHDSEESAAACTFDEDGVAPNSVDESLPMLNDAKQTRANPGTSRPHSNGGGSSHGNELPRRTEQRAQGPRQPARLPKQGKTNGKSDGNITAGETQRGGIPRGKGPRGGKTNTRRTPPKAGAQPQPSNNRK
notes: also called RNA capping null mutant H93A; not shown: ALFA tag, C-terminal, kept
B2: FHV protein A D692E, C-terminal alfa tag (natural protein)
chain: B1 chain with A93H, D692E
notes: also called RNA polymerase null mutant D692E; not shown: ALFA tag, C-terminal, kept

Molecular target: the molecule itself
Assay: negative-stain electron microscopy (2D classification, 3D reconstruction)

Row | Protein | binding result
1 | B1 | binds
2 | B2 | binds
